Test system: peptide library, one residue held at a place counted from the S/T acceptor
Assay: relative phosphorylation of the sub-library (ratio to the mean residue at this position); higher = residue favoured
Conditions: human
Outline: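 Purified recombinant kinases were reacted in 384-well plates with biotinylated degenerate peptide sub-libraries, each having one residue fixed at one position around a central Ser/Thr. The reaction mix contained 50 μM peptide plus 50 μM ATP spiked with γ-32P-ATP and ran for 90 min under kinase-specific conditions. Relative sub-library phosphorylation, taken from densitometry of phosphorimaged streptavidin membrane spots, is a ratio to the mean residue at that position.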

Chain of DSTYK, construct: Full length (Q6XUX3 whole entry, looked up): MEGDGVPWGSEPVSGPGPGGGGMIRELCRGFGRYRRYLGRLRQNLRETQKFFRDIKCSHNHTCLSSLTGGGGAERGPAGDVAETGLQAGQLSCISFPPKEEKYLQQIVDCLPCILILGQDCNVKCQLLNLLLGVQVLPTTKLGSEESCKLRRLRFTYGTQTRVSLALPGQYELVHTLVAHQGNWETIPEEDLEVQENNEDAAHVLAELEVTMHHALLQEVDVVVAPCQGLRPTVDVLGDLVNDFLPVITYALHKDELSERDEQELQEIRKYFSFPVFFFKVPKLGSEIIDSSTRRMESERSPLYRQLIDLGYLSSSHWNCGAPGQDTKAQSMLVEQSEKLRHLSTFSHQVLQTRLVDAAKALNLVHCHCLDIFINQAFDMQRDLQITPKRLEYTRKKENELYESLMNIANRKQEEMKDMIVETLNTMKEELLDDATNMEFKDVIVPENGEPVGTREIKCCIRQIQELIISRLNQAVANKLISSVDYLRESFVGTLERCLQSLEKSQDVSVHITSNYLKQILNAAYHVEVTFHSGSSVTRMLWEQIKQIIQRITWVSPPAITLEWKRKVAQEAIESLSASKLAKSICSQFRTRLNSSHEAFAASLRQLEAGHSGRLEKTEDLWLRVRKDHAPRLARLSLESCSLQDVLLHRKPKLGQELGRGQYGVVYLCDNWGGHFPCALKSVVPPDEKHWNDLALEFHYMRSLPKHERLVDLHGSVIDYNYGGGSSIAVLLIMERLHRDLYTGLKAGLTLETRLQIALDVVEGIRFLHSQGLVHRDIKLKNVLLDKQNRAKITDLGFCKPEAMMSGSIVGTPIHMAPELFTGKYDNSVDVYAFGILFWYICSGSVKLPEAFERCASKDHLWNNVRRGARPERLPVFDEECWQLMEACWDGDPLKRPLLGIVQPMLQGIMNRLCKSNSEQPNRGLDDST
Chain of GSK3A, construct: Full length (P49840 whole entry, looked up): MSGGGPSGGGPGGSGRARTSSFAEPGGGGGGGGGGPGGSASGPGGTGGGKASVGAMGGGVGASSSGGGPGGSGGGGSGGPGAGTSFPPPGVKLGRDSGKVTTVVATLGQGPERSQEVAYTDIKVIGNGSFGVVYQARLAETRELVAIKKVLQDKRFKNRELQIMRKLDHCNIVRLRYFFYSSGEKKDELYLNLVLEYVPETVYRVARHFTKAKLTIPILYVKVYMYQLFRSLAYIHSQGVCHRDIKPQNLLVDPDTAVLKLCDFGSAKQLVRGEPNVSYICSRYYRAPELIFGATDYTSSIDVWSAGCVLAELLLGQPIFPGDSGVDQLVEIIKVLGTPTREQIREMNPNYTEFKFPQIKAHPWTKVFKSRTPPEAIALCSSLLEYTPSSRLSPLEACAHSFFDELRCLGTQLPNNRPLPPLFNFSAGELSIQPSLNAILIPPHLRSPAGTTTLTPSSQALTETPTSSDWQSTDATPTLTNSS
Chain of GAK, construct: aa24-359 (O14976 24-359, looked up): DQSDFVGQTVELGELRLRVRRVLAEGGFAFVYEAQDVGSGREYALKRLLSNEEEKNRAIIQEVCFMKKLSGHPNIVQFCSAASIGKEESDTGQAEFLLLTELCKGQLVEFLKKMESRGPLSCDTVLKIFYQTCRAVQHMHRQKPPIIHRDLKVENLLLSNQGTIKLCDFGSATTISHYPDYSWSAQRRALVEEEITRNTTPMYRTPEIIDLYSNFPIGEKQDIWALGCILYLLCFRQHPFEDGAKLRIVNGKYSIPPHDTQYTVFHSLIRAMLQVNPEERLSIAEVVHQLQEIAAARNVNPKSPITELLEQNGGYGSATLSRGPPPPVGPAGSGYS

DSTYK, construct: Full length (from UniProt Q6XUX3)
relative phosphorylation
Conditions | at +1 | at +2 | at +3 | at +4 | at -1 | at -2 | at -3 | at -4 | at -5
A fixed | 0.815 | 1.14 | 0.976 | 1.07 | 1.15 | 0.947 | 0.937 | 1.05 | 1.27
D fixed | 0.5 | 0.992 | 0.68 | 0.984 | 1.7 | 2.48 | 1.41 | 1.8 | 1.74
E fixed | 0.639 | 1.52 | 0.934 | 1.05 | 2 | 2.13 | 0.887 | 1.52 | 1.43
F fixed | 1.11 | 0.465 | 1.04 | 0.754 | 0.584 | 0.828 | 2.04 | 1.12 | 0.944
G fixed | 1.19 | 0.729 | 0.872 | 1.12 | 0.813 | 1.11 | 0.697 | 1.34 | 1.31
H fixed | 0.834 | 1.08 | 1.25 | 0.955 | 0.924 | 1.15 | 1.02 | 0.96 | 1.12
I fixed | 1.52 | 0.48 | 0.915 | 0.663 | 0.577 | 0.701 | 1.07 | 0.721 | 0.619
K fixed | 0.434 | 1.85 | 1.09 | 1.29 | 0.93 | 0.366 | 0.453 | 0.718 | 1.05
L fixed | 1.54 | 0.461 | 1.1 | 0.754 | 0.97 | 1.25 | 1.7 | 0.862 | 0.732
M fixed | 1.55 | 0.667 | 0.977 | 0.837 | 0.911 | 1.1 | 1.36 | 0.744 | 0.698
N fixed | 0.878 | 1.3 | 0.83 | 1.11 | 1.48 | 1.03 | 0.676 | 0.908 | 0.935
P fixed | 0.218 | 0.587 | 0.738 | 1.45 | 0.324 | 0.228 | 0.513 | 0.777 | 0.916
Q fixed | 1.21 | 1.29 | 1.02 | 1.15 | 1.31 | 1.04 | 0.692 | 0.793 | 0.773
R fixed | 0.499 | 2.58 | 1.3 | 1.23 | 1.2 | 0.467 | 0.471 | 0.639 | 0.835
V fixed | 1.65 | 0.685 | 1.08 | 0.734 | 0.667 | 0.765 | 0.6 | 0.598 | 0.733
W fixed | 0.993 | 0.595 | 1.09 | 1.04 | 0.682 | 0.717 | 1.29 | 1.63 | 1.17
Y fixed | 1.41 | 0.569 | 1.11 | 0.797 | 0.774 | 0.69 | 1.19 | 0.819 | 0.722
pThr fixed | 1.23 | 1.43 | 0.787 | 1.09 | 0.845 | 1.66 | 0.996 | 1.03 | 1.04
pTyr fixed | 2.22 | 0.801 | 0.882 | 0.912 | 1.84 | 1.21 | 1.13 | 0.961 | 1.09

GAK, construct: aa24-359 (from UniProt O14976)
relative phosphorylation
Conditions | at +1 | at +2 | at +3 | at +4 | at -1 | at -2 | at -3 | at -4 | at -5
A fixed | 0.783 | 1.19 | 0.848 | 0.882 | 0.845 | 0.985 | 0.819 | 0.986 | 0.954
D fixed | 0.647 | 0.954 | 0.997 | 0.884 | 0.75 | 0.753 | 0.898 | 1.14 | 1.08
E fixed | 0.658 | 0.86 | 1.05 | 0.891 | 0.653 | 0.778 | 0.912 | 1.49 | 1.03
F fixed | 0.643 | 0.918 | 0.862 | 1.02 | 0.904 | 0.801 | 0.709 | 0.856 | 0.879
G fixed | 5.69 | 1.37 | 1.28 | 0.908 | 0.974 | 1.08 | 0.888 | 0.947 | 0.831
H fixed | 0.829 | 1.13 | 1.19 | 0.96 | 1.13 | 1.13 | 1.11 | 1.11 | 1.1
I fixed | 0.588 | 0.741 | 0.822 | 0.849 | 0.824 | 0.879 | 0.935 | 0.852 | 1.06
K fixed | 0.766 | 1.08 | 1.21 | 1.21 | 2.28 | 1.1 | 1.43 | 1.12 | 1.09
L fixed | 0.615 | 0.801 | 0.914 | 0.987 | 0.808 | 0.994 | 1.01 | 0.83 | 0.802
M fixed | 0.649 | 0.792 | 0.825 | 0.896 | 0.813 | 1.06 | 1.07 | 0.875 | 0.853
N fixed | 0.841 | 1.28 | 1.22 | 0.913 | 0.973 | 1.65 | 1.17 | 0.941 | 0.978
P fixed | 0.729 | 0.736 | 0.801 | 0.834 | 1.23 | 0.687 | 0.751 | 0.69 | 0.696
Q fixed | 0.696 | 1.1 | 1.05 | 1 | 0.965 | 1.22 | 1.16 | 1.04 | 0.853
R fixed | 0.833 | 1.26 | 1.2 | 1.34 | 1.3 | 1.28 | 1.43 | 1.14 | 1.15
V fixed | 0.59 | 0.902 | 0.974 | 0.882 | 0.914 | 0.86 | 0.901 | 0.959 | 1
W fixed | 0.769 | 1.03 | 0.82 | 1.59 | 0.803 | 0.848 | 0.849 | 1.03 | 1.05
Y fixed | 0.672 | 0.831 | 0.931 | 0.947 | 0.838 | 0.9 | 0.959 | 0.998 | 1.6
pThr fixed | 0.904 | 1.95 | 1.38 | 1.44 | 1.22 | 1.63 | 1.69 | 1.55 | 1.23
pTyr fixed | 0.674 | 0.963 | 0.94 | 0.772 | 0.884 | 1.09 | 1.27 | 1.23 | 1.27

GSK3A, construct: Full length (from UniProt P49840)
relative phosphorylation
Conditions | at +1 | at +2 | at +3 | at +4 | at -1 | at -2 | at -3 | at -4 | at -5
A fixed | 0.877 | 0.899 | 0.742 | 0.852 | 1.1 | 1.42 | 1.14 | 1.28 | 1.14
D fixed | 0.815 | 1.25 | 1.32 | 1.25 | 1.15 | 1.14 | 1.36 | 1.39 | 1.36
E fixed | 0.758 | 0.904 | 2.08 | 3.03 | 1.09 | 0.906 | 1.26 | 1.4 | 1.05
F fixed | 0.673 | 0.931 | 0.889 | 0.752 | 0.598 | 0.686 | 0.525 | 0.686 | 0.903
G fixed | 1.19 | 0.957 | 1.02 | 0.825 | 1.47 | 1.38 | 2.61 | 1.43 | 0.995
H fixed | 0.771 | 1.04 | 0.935 | 0.772 | 0.927 | 0.741 | 0.668 | 0.915 | 0.983
I fixed | 0.564 | 0.621 | 0.679 | 0.788 | 0.506 | 0.719 | 0.507 | 0.661 | 0.727
K fixed | 1.18 | 1.33 | 0.933 | 1.14 | 1.3 | 1.02 | 0.824 | 1.06 | 1.16
L fixed | 0.552 | 0.772 | 0.803 | 0.862 | 0.61 | 0.638 | 0.536 | 0.715 | 0.811
M fixed | 0.607 | 0.883 | 0.812 | 0.864 | 0.691 | 0.662 | 0.604 | 0.747 | 0.739
N fixed | 1.05 | 1.38 | 1 | 0.922 | 1.28 | 1.25 | 1.21 | 1.13 | 0.974
P fixed | 3.8 | 0.825 | 0.899 | 0.728 | 1.5 | 2.02 | 1.65 | 1.42 | 1.31
Q fixed | 0.858 | 1.35 | 1.2 | 1.03 | 1.35 | 1 | 1.09 | 0.894 | 0.887
R fixed | 1.15 | 1.03 | 1.01 | 0.82 | 1.31 | 1.26 | 1.21 | 0.951 | 1.01
V fixed | 0.634 | 0.703 | 0.718 | 0.695 | 0.616 | 0.777 | 0.605 | 0.721 | 0.963
W fixed | 0.793 | 1.15 | 1.07 | 0.766 | 0.724 | 0.728 | 0.592 | 0.828 | 1.1
Y fixed | 0.725 | 0.979 | 0.873 | 0.908 | 0.77 | 0.653 | 0.614 | 0.772 | 0.882
pThr fixed | 0.876 | 0.928 | 3.67 | 62.8 | 0.866 | 1.11 | 1.06 | 1.82 | 1.07
pTyr fixed | 1.15 | 1.09 | 2.41 | 3.12 | 1.52 | 1.34 | 1.37 | 1.45 | 1.69

Source: the supplement of paper PMC9876800
